T1: cynomolgus KLRB1 on CHO-K1 (cynomolgus)
T1 chain: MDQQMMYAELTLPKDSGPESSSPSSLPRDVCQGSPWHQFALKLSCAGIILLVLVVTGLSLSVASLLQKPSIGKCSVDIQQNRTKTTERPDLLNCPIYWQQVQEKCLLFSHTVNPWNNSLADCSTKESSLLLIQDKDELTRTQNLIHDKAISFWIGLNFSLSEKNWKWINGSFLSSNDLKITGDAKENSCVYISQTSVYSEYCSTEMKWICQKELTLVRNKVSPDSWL

B1: 9C10G11 (antibody, V domains shown)
VH: QVQLKESGPGLVAPSQSLSITCTVSGFSLTGYGVNWVRQPPGKGLEWLGMIWGDGSTDYNSALKSRLSISKDNSKSQVFLKMNSLQTDDTARYYCARTYNNYHYWYFDVWGAGTTVTVSS
VL: DIQMTQSPASLSASVGETVTITCRASGNIHNYLAWYQQKQGKSPQLLVYNAKTLADGVPSRFSGSGSGTQYSLKINSLQPEDFGSYYCQHFWSTPYTFGGGTKLEIK
B2: 52G9B12B5 chimeric (antibody, V domains shown)
VH: QVQLQQSGAELMQPGTSVKIPCKATGYTFSSFWMEWVKQRPGHGLEWIGEIFPGSGSTNYNEKFKGKATFTADTSSNTAYMQLSSLTSEDSAVYYCATLITTGLTYWGQGTLVTVSA
VL: NIVMTQSHKFMSTSVGDRVSITCKASQDVNTAVAWYQQIPGRSPKLLIYWASTRHTGVPDRFTGSGSGTDYTLTISSVQAEDLAFYYCQQHYRIPFTFGAGTKLELK
B3: 5A11D10 chimeric (antibody, V domains shown)
VH: DVQLQESGPGQVKPSQSLSLTCTVTGYSLTSDFAWNWIRQFPGNKLEWMGDIRYSGSTDYNPSLKTRSSITRDTSKNQFFLHLNSVTTEDTATYYCARGGYYGYDEGYPMDYWGQGTSVTVSS
VL: NIVLTQSPASLAVSLGQRATISCRASESVDVYGNSFMHWYQQKAGQPPKLLIYLAFNLKSGVPARFSGSGSRTDFTLTIDPVEADDAATYYCQQNNEDPFTFGSGTKLEIK
B4: 5B1B11 chimeric (antibody, V domains shown)
VH: QVQLQQPGAELVKPGASVKLSCKASGYTFTNYWMHWVKQRPGQGLEWIGEINPSNGRTNFNEKFKSKATLTVDKSSSTAYMQLSSLTSEDSAVYYCARSYDSYYAAVDYWGQGTSVTVSS
VL: QIVLTQSPAIMSASLGEEITLTCSASSSVSYMHWYQQKSGTSPKLLIYTTSNLPSGVPSRFSGSGSGTFYSLTISSVEAEDAADYYCHQWSTYPYTFGGGTKLEIK
B5: Hu50A8F2-10 (antibody, V domains shown)
VH: QVQLVQSGAEVKKPGASVKVSCKASGYTFIDYYINWVRQAPGQGLEWMGWIFPGSGHTKYNENFKGKVTLTVDTSTSTVYMELSSLRSEDTAVYYCARGDRSALGYFDYWGQGTTVTVSS
VL: DIQMTQSPSSLSASVGDRVTITCTASSSVSSTYLHWYQQKPGKAPKLLIYSTSNLASGVPSRFSGSGSGTDYTLTISSLQPEDFATYYCHQYHRSPLTFGQGTKLEIK
B6: Hu50A8F2-12 (antibody, V domains shown)
VH: QVQLVQSGAEVKKPGASVKVSCKASGYTFIDYYINWVRQAPGQGLEWMGWIFPGSGHTKYNENFKGKVTLTVDTSTSTVYMELSSLRSEDTAVYYCARGDRSALGYFDYWGQGTTVTVSS
VL: DIQLTQSPSSLSASVGDRVTITCTASSSVSSTYLHWYQQKPGKSPKLLIYSTSNLASGVPSRFSGSGSGTDYTLTISSLQPEDAATYYCHQYHRSPLTFGQGTKLEIK
B7: Hu50A8F2-11 (antibody, V domains shown)
VH: QVQLVQSGAEVKKPGASVKVSCKASGYTFIDYYINWVRQAPGQGLEWMGWIFPGSGHTKYNENFKGKVTLTVDTSTSTVYMELSSLRSEDTAVYYCARGDRSALGYFDYWGQGTTVTVSS
VL: DIQLTQSPSSLSASVGDRVTITCTASSSVSSTYLHWYQQKPGKSPKLLIYSTSNLASGVPSRFSGSGSGTDYTLTISSLQPEDFATYYCHQYHRSPLTFGQGTKLEIK
B8: Hu50A8F2-09 (antibody, V domains shown)
VH: QVQLVQSGAEVKKPGASVKVSCKASGYTFIDYYINWVRQAPGQGLEWMGWIFPGSGHTKYNENFKGKVTLTVDTSTSTVYMELSSLRSEDTAVYYCARGDRSALGYFDYWGQGTTVTVSS
VL: DIQMTQSPSSLSASVGDRVTITCTASSSVSSTYLHWYQQKPGKAPKLLIYSTSNLASGVPSRFSGSGSGTDFTLTISSLQPEDFATYYCHQYHRSPLTFGQGTKLEIK
B9: Hu50A8F2-13 (antibody, V domains shown)
VH: QVQLVQSGAEVKKPGASVKVSCKASGYTFIDYYINWVRQAPGQGLEWIGWIFPGSGHTKYNENFKGKVTLTVDTSTSTVYMELSSLRSEDTAVYFCARGDRSALGYFDYWGQGTTVTVSS
VL: DIQMTQSPSSLSASVGDRVTITCTASSSVSSTYLHWYQQKPGKAPKLLIYSTSNLASGVPSRFSGSGSGTDFTLTISSLQPEDFATYYCHQYHRSPLTFGQGTKLEIK
B10: Hu50A8F2-05 (antibody, V domains shown)
VH: QVQLVQSGAEVKKPGASVKVSCKASGYTFIDYYINWVRQAPGQGLEWMGWIFPGSGHTKYNENFKGKVTMTVDTSTSTVYMELSSLRSEDTAVYYCARGDRSALGYFDYWGQGTTVTVSS
VL: DIQMTQSPSSLSASVGDRVTITCTASSSVSSTYLHWYQQKPGKAPKLLIYSTSNLASGVPSRFSGSGSGTDFTLTISSLQPEDFATYYCHQYHRSPLTFGQGTKLEIK
B11: Hu50A8F2-14 (antibody, V domains shown)
VH: QVQLVQSGAEVKKPGASVKVSCKASGYTFIDYYINWVRQAPGQGLEWIGWIFPGSGHTKYNENFKGKVTLTVDTSTSTVYMELSSLRSEDTAVYFCARGDRSALGYFDYWGQGTTVTVSS
VL: DIQMTQSPSSLSASVGDRVTITCTASSSVSSTYLHWYQQKPGKAPKLLIYSTSNLASGVPSRFSGSGSGTDYTLTISSLQPEDFATYYCHQYHRSPLTFGQGTKLEIK
B12: Hu50A8F2-07 (antibody, V domains shown)
VH: QVQLVQSGAEVKKPGASVKVSCKASGYTFIDYYINWVRQAPGQGLEWMGWIFPGSGHTKYNENFKGKVTMTVDTSTSTVYMELSSLRSEDTAVYYCARGDRSALGYFDYWGQGTTVTVSS
VL: DIQLTQSPSSLSASVGDRVTITCTASSSVSSTYLHWYQQKPGKSPKLLIYSTSNLASGVPSRFSGSGSGTDYTLTISSLQPEDFATYYCHQYHRSPLTFGQGTKLEIK
B13: Hu50A8F2-02 (antibody, V domains shown)
VH: QVQLVQSGAEVKKPGASVKVSCKASGYTFIDYYINWVRQAPGQGLEWMGWIFPGSGHTKYNENFKGRVTMTRDTSTSTVYMELSSLRSEDTAVYYCARGDRSALGYFDYWGQGTTVTVSS
VL: DIQMTQSPSSLSASVGDRVTITCTASSSVSSTYLHWYQQKPGKAPKLLIYSTSNLASGVPSRFSGSGSGTDYTLTISSLQPEDFATYYCHQYHRSPLTFGQGTKLEIK
B14: Hu50A8F2-08 (antibody, V domains shown)
VH: QVQLVQSGAEVKKPGASVKVSCKASGYTFIDYYINWVRQAPGQGLEWMGWIFPGSGHTKYNENFKGKVTMTVDTSTSTVYMELSSLRSEDTAVYYCARGDRSALGYFDYWGQGTTVTVSS
VL: DIQLTQSPSSLSASVGDRVTITCTASSSVSSTYLHWYQQKPGKSPKLLIYSTSNLASGVPSRFSGSGSGTDYTLTISSLQPEDAATYYCHQYHRSPLTFGQGTKLEIK

Key:
human KLRB1 ECD [1] = target: human KLRB1 ECD (human); experiment: SPR
Sequence of human KLRB1 ECD (human) (chain, as listed by the source): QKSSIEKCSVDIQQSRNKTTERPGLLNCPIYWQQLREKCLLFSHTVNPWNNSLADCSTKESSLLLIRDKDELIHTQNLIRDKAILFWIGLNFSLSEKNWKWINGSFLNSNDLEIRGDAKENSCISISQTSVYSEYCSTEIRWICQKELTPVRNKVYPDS

[2] = target: T1, cynomolgus KLRB1 on CHO-K1; experiment: FACS
human KLRB1 on CHO-K1 = human KLRB1 on CHO-K1 (human); experiment: FACS
Sequence of human KLRB1 on CHO-K1 (human) (chain, as listed by the source): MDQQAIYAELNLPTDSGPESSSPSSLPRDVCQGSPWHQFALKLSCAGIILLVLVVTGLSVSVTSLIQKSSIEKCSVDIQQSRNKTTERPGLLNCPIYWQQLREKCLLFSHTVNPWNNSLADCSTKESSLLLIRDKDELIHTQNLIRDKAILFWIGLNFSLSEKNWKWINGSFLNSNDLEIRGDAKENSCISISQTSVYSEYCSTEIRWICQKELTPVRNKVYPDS

human KLRB1 ECD [3] = target: human KLRB1 ECD (human); experiment: ELISA

Row | Binder | Kd (human KLRB1 ECD [1]) | binding result [2] | EC50 (human KLRB1 on CHO-K1) | EC50 (human KLRB1 ECD [3])
1 | B1 | 14.8 nM | – | – | –
2 | B2 | 4.4 nM | – | – | –
3 | B3 | 0.0591 nM | – | – | –
4 | B4 | 0.255 nM | – | – | –
5 | B5 | – | no binding | 5.67 nM | 0.0187 nM
6 | B6 | – | no binding | 5.77 nM | 0.014 nM
7 | B7 | – | no binding | 5.43 nM | 0.0144 nM
8 | B8 | – | no binding | 5.4 nM | 0.0189 nM
9 | B9 | – | no binding | 5.06 nM | 0.0104 nM
10 | B10 | – | no binding | 5.51 nM | 0.0183 nM
11 | B11 | – | no binding | 5.12 nM | 0.0121 nM
12 | B12 | – | no binding | 5.72 nM | 0.0174 nM
13 | B13 | – | no binding | 5.81 nM | 0.0167 nM
14 | B14 | – | no binding | 5.44 nM | 0.0111 nM

Source: patent US20260356955 (published 2026)
